From the supplement of paper PMC10126150
± gives the standard deviation of the averaged measurements.

System: ATP
Assay: switch fluorescence ratio, 500 uM ATP over buffer (Cy3 cluster intensity, sum of 5 cycles each) (fold (ratio)); higher = stronger signal-on switching upon ATP binding; sequences stand for … in TCGTCGGCAGCGTCAGATGTGTATAAGAGACAGTTTTTTTTTTTTTTTTTTTTTTTTT…TC
Settings: aptamer strand: ATP DNA aptamer (quencher-CACCTGGGGGAGTATTGCGGAGGAAGG + anchor), 100 nM annealed; ATP concentration: 500 uM
Method in brief: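 Five buffer/ATP imaging cycles were run on Cy3-labelled switching-strand clusters on a modified Illumina MiSeq flow-cell, with NaOH stripping and re-annealing between cycles. In each cycle, clusters annealed to 100 nM quencher-labelled ATP aptamer were imaged in selection buffer, then after 15 min with 500 uM ATP at 22 °C. Per cluster, the fluorescence ratio is summed target-cycle over summed buffer-cycle Cy3 intensity, averaged per switch-domain sequence. Only clusters within 100-1000 RFU were kept.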
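Also: ATP exposure 15 min at 22 °C before imaging.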

Sequence | switch fluorescence ratio
AGGAGGCGCG | 1.05 ± 0.1
TTACTCGGGA | 1.04 ± 0.012
TAACCGATAT | 0.99434 ± 0.00034
GGCTCATCA | 1.01 ± 0.023
TGGTCCAGAA | 0.977 ± 0.016
TCGGGGGTTT | 1 ± 0.038
GGAAACACAG | 1.02 ± 0.035
GGGGGTGGAG | 1 ± 0.041
TTGGTTTTAA | 1.03 ± 0.014
TCGAGGGGGT | 0.986 ± 0.054
CGGTACTTGG | 0.967 ± 0.05
TGTGCAGCG | 1.02 ± 0.022
GTGGACATTA | 1.01 ± 0.012
TTGGAGGGCG | 1.03 ± 0.017
TGCTTTTTCA | 0.9895 ± 0.0042
GCTACGCGCT | 1.36 ± 0.021
CGGCTGACTG | 1.05 ± 0.019
AGACTTTTGG | 0.987 ± 0.011
TTTTGAACCA | 1.05 ± 0.057
AGGTTGTTCT | 0.967 ± 0.035
TGGAGGTGTT | 1.03 ± 0.035
TCCAATTGGG | 1.11 ± 0.09
CCTGTTGCGA | 2.66 ± 0.52
AATGCTGTGT | 0.97 ± 0.021
CTGGGACCAG | 1.019 ± 0.007
GATCCTTGGG | 1.022 ± 0.0056

Sequence | switch fluorescence ratio
TTGGAGCATG | 1.28 ± 0.049
GCGGTCAAAT | 1.005 ± 0.0018
AGGACCAGGT | 1.02 ± 0.025
GTTATTTTGT | 0.99 ± 0.019
GAATATACGC | 1.04 ± 0.021
GGTGGGAACA | 0.992 ± 0.03
GGGAGCGCGG | 0.994 ± 0.013
GGTGCAACAT | 1.03 ± 0.051
GGTCTGTATT | 0.972 ± 0.012
GGGAAAGGAC | 1.03 ± 0.032
TCAGGGACGA | 1.02 ± 0.055
GATTGTGCTG | 0.988 ± 0.01
TTATAAGGGG | 0.979 ± 0.04
GTCCACTGTT | 0.996 ± 0.024
ATTTACTCAT | 1.038 ± 0.0012
TTATGGTAAC | 1.04 ± 0.018
TTAATTAGGT | 1.02 ± 0.071
TAGAAGTGCG | 1.01 ± 0.041
ACTTCTGGAG | 2.15 ± 0.028
CTGGGGGCAG | 1.036 ± 0.0073
CGGGGACGGC | 0.98 ± 0.025
GGGGATAAGG | 0.984 ± 0.042
TCGGGAGTCA | 1.011 ± 0.0091
CGTCGACCGG | 1 ± 0.022
TGCAACCTTG | 1.0397 ± 0.0007
TTTAAAGTGG | 0.98 ± 0.015

Sequence | switch fluorescence ratio
GAAATGTGGT | 0.997 ± 0.02
GTAGCTTATC | 2.08 ± 0.067
CGTATTTATT | 1.01 ± 0.021
AAGGCAGGGC | 0.972 ± 0.04
TATTAGGGGA | 1.02 ± 0.013
TTAGTACGAT | 1.018 ± 0.0096
GTTTAAAAGC | 0.9842 ± 0.0061
GCTATTTTTG | 0.999 ± 0.04
GAAGGCAGGG | 0.986 ± 0.029
AATCCTGCGT | 1.16 ± 0.21
TTGACGGTGG | 1.05 ± 0.086
AACTTTATGA | 1.02 ± 0.01
ACTGAGCCTG | 1.056 ± 0.0083
GTAATGATCT | 1.06 ± 0.036
ACAGCAGTTG | 1.04 ± 0.042
TTTGGAATTT | 1.06 ± 0.1
TCTTTTTGGA | 1.017 ± 0.0079
GATGGACTTT | 1.03 ± 0.013
ACCAATAGGA | 1.01 ± 0.021
ATGTGGAAGT | 0.97 ± 0.043
ATGCTAACGT | 0.9818 ± 0.0032
GATTTGCCGA | 1.034 ± 0.005
GCGTGCGGGA | 1.02 ± 0.017
GACTAAGACT | 1.01 ± 0.026
TCTCGTGAGA | 0.997 ± 0.053
ATGCATTAAT | 0.997 ± 0.015

Sequence | switch fluorescence ratio
AATATGAGTA | 0.993 ± 0.038
TGTTCGGGTG | 1.05 ± 0.022
TCGTAAAATT | 0.986 ± 0.026
CGGGGTTTGT | 1.01 ± 0.011
ATTATCAGGT | 1.06 ± 0.057
ATTGATTGAC | 1.05 ± 0.043
AATCGATTTG | 0.989 ± 0.032
TCGGTACATA | 1.037 ± 0.0066
GGTGCTGGTG | 1.05 ± 0.025
CCTGGAAAGT | 0.985 ± 0.0074
AGCTGGGTCC | 1.04 ± 0.041
TGGATGATGG | 0.961 ± 0.019
CCGGTTAGG | 0.998 ± 0.045
AACCTATGGT | 0.978 ± 0.0042
AAAGTATCAG | 1.002 ± 0.0081
TTATGACCAG | 1.009 ± 0.0095
ATGAGAAGGC | 0.997 ± 0.038
GGGGAGGATT | 0.986 ± 0.027
AGCGTCAGCC | 0.99 ± 0.05
CTCAGTTTTA | 1.002 ± 0.0083
GATCTATGTG | 1.01 ± 0.042
GGTGGGGTAT | 0.98 ± 0.021
TTTTCTCACG | 1.12 ± 0.11
TTTTATAGAC | 1.04 ± 0.026
ATGCGGGGGT | 0.993 ± 0.037
GCTATCTGCC | 1.075 ± 0.01

Sequence | switch fluorescence ratio
AGGGTATGTT | 0.9682 ± 0.004
GTCAGAGCTA | 1.01 ± 0.025
TATGATTACG | 1.03 ± 0.013
CAAGCATAGG | 1.07 ± 0.072
TTTGGAGACT | 1.03 ± 0.02
TGGGGGAGGG | 1 ± 0.054
TAAAATGGGA | 0.981 ± 0.027
TATGGGCGCG | 1.11 ± 0.23
GGACGGCCGC | 1.06 ± 0.037
GATACACATG | 1.04 ± 0.021
CCGCGGTCGT | 1.3 ± 0.085
TTCGGGTGTG | 0.999 ± 0.025
TGGTTTAGGT | 0.995 ± 0.028
TTTCTGGTAA | 1.08 ± 0.034
TTTACGAGTA | 1.01 ± 0.012
CAGGGTTCCG | 1.17 ± 0.28
TACGTTGAGC | 1.02 ± 0.02
GGTCACGGCA | 1 ± 0.013
ATTCGGGCCA | 1.01 ± 0.037
GGGGGTTCAT | 0.979 ± 0.013
GTGTTGTTCG | 0.995 ± 0.015
ATGTATCACT | 0.984 ± 0.015
AAGATCACTT | 0.979 ± 0.041
ACAATCGTTT | 1.01 ± 0.014
ACATCTTCGA | 0.97 ± 0.046
GCGGCGGGTT | 1.04 ± 0.064

Sequence | switch fluorescence ratio
GTTGTGAGCG | 1.01 ± 0.048
TTGGAGAGTG | 0.963 ± 0.021
TCTTAGAGGG | 0.991 ± 0.017
TTCCATGGCA | 1.037 ± 0.0056
GGGCAACTTT | 0.997 ± 0.049
AGTTTTTATT | 1.03 ± 0.015
TCAAAACTGT | 1.07 ± 0.067
AAGGGGTTGC | 1.03 ± 0.022
CCACGATTAA | 1.003 ± 0.008
CGTGGGGGT | 0.996 ± 0.035
GGTAATTCTG | 0.9837 ± 0.0033
ATGACCGGTT | 1.01 ± 0.046
CTGACTTACG | 1.11 ± 0.016
GGCATTAAAG | 0.9841 ± 0.0078
GTTAACCCAT | 1.0083 ± 4.1e-05
GAAATGGTAG | 0.99 ± 0.025
AAGGTAATCC | 1.01 ± 0.039
AGGGGGTCAC | 1 ± 0.026
ATAGTATTGA | 0.969 ± 0.022
ATTATTAGTC | 1.01 ± 0.022
TGATTGGCTG | 1.02 ± 0.045
GCATGAGTGC | 1.07 ± 0.061
TAATGGGGGT | 0.994 ± 0.025
